How the values were obtained:
HLA-B*48:01 = assay: IEDB peptide-MHC binding, purified MHC/competitive/fluorescence; filed as Kd, often an IC50 or EC50 that approximates it; ≥ and ≤ were set here for values at or beyond the usual limits of such assays
HLA-A*02:01 [1] = assay: as above
HLA-A*02:03 [2] = assay: as above
HLA-A*02:11 = assay: as above
HLA-A*02:12 [3] = assay: as above
HLA-A*02:16 [4] = assay: as above
HLA-A*02:19 [5] = assay: as above
HLA-A*03:01 [6] = assay: as above
HLA-A*24:03 [7] = assay: as above
HLA-A*26:01 [8] = assay: as above; conditions: source organism: Yersinia mollaretii ATCC 43969
HLA-A*29:02 [9] = assay: as above
HLA-A*68:02 [10] = assay: as above; conditions: source organism: Yersinia mollaretii ATCC 43969
HLA-A*69:01 [11] = assay: as above
HLA-B*15:01 [12] = assay: as above; conditions: source organism: Yersinia mollaretii ATCC 43969
HLA-B*15:17 [13] = assay: as above; conditions: source organism: Yersinia mollaretii ATCC 43969
HLA-B*18:01 [14] = assay: as above
HLA-B*27:03 [15] = assay: as above
HLA-B*39:01 = assay: as above
HLA-B*46:01 [16] = assay: as above
HLA-B*51:01 [17] = assay: as above; conditions: source organism: Yersinia mollaretii ATCC 43969
HLA-B*57:01 [18] = assay: as above; conditions: source organism: Yersinia mollaretii ATCC 43969
HLA-A*02:06 = assay: as above
HLA-A*23:01 [19] = assay: as above; conditions: source organism: Vibrio vulnificus YJ016
HLA-A*02:01 [20] = assay: IEDB peptide-MHC binding, purified MHC/direct/fluorescence; filed as Kd, often an IC50 or EC50 that approximates it; ≥ and ≤ were set here for values at or beyond the usual limits of such assays
HLA-A*02:03 [21] = assay: as above
HLA-A*02:12 [22] = assay: as above
HLA-A*02:16 [23] = assay: as above
HLA-A*02:19 [24] = assay: as above
HLA-A*03:01 [25] = assay: as above
HLA-A*23:01 [26] = assay: as above; conditions: source organism: Brucella suis 1330
HLA-A*24:03 [27] = assay: as above; conditions: source organism: Brucella suis 1330
HLA-A*26:01 [28] = assay: as above
HLA-A*29:02 [29] = assay: as above; conditions: source organism: Brucella suis 1330
HLA-A*68:02 [30] = assay: as above
HLA-A*69:01 [31] = assay: as above; conditions: source organism: Brucella suis 1330
HLA-B*15:01 [32] = assay: as above
HLA-B*15:17 [33] = assay: as above; conditions: source organism: Brucella suis 1330
HLA-B*18:01 [34] = assay: as above
HLA-B*27:03 [35] = assay: as above
HLA-B*46:01 [36] = assay: as above
HLA-B*51:01 [37] = assay: as above
HLA-B*57:01 [38] = assay: as above
HLA-C*03:03 = assay: as above; conditions: source organism: Mycobacterium tuberculosis variant bovis BCG str. Pasteur 1173P2
HLA-C*05:01 = assay: as above; conditions: source organism: Mycobacterium tuberculosis variant bovis BCG str. Pasteur 1173P2
[39] = source organism: Yersinia mollaretii ATCC 43969
[40] = source organism: Human immunodeficiency virus 1
[41] = source organism: Vibrio vulnificus YJ016
[42] = source organism: Brucella suis 1330
[43] = source organism: Mycobacterium tuberculosis variant bovis BCG str. Pasteur 1173P2
[44] = source organism: Vibrio cholerae V52

KRAAAGIMK gave a Kd (HLA-B*48:01; source organism: Dengue virus 2 Thailand/NGS-C/1944) of no less than 20 µM.
With DEQEFFYSQ the Kd (HLA-A*02:01 [1]; [39]) was no less than 20 µM, the Kd (HLA-A*02:03 [2]; [39]) was no less than 20 µM and the Kd (HLA-A*02:11; [39]) was no less than 20 µM. For the same sequence, the Kd (HLA-A*02:12 [3]; [39]) was no less than 20 µM, the Kd (HLA-A*02:16 [4]; [39]) was no less than 20 µM and the Kd (HLA-A*02:19 [5]; [39]) was no less than 20 µM. It also gave a Kd (HLA-A*03:01 [6]; [39]) of no less than 20 µM, a Kd (HLA-A*24:03 [7]; [39]) of no less than 20 µM and a Kd (HLA-A*26:01 [8]) of no less than 20 µM. It also gave a Kd (HLA-A*29:02 [9]; [39]) of no less than 20 µM, a Kd (HLA-A*68:02 [10]) of no less than 20 µM and a Kd (HLA-A*69:01 [11]; [39]) of no less than 20 µM. It also gave a Kd (HLA-B*15:01 [12]) of no less than 20 µM, a Kd (HLA-B*15:17 [13]) of no less than 20 µM and a Kd (HLA-B*18:01 [14]; [39]) of 0.0003 µM. For the same sequence, the Kd (HLA-B*27:03 [15]; [39]) was no less than 20 µM, the Kd (HLA-B*39:01; [39]) was no less than 20 µM and the Kd (HLA-B*46:01 [16]; [39]) was no less than 20 µM. The Kd (HLA-B*51:01 [17]) was no less than 20 µM and the Kd (HLA-B*57:01 [18]) was no less than 20 µM.
FLGKIWSS showed a Kd (HLA-A*02:01 [1]; [40]) of 0.0075 µM, a Kd (HLA-A*02:03 [2]; [40]) of 0.00138 µM and a Kd (HLA-A*02:06; [40]) of no more than 0.0001 µM. It also gave a Kd (HLA-A*02:11; [40]) of no more than 0.0001 µM, a Kd (HLA-A*02:12 [3]; [40]) of 0.0005 µM and a Kd (HLA-A*02:16 [4]; [40]) of no more than 0.0001 µM. It also gave a Kd (HLA-A*02:19 [5]; [40]) of 0.00233 µM and a Kd (HLA-A*69:01 [11]; [40]) of no less than 5 µM.
In the case of HTSALSLGY, the Kd (HLA-A*02:01 [1]; [41]) is reported as no less than 20 µM, the Kd (HLA-A*02:03 [2]; [41]) is reported as no less than 20 µM and the Kd (HLA-A*02:11; [41]) is reported as no less than 20 µM. For the same sequence, the Kd (HLA-A*02:12 [3]; [41]) was no less than 20 µM, the Kd (HLA-A*02:16 [4]; [41]) was no less than 20 µM and the Kd (HLA-A*02:19 [5]; [41]) was no less than 20 µM. It also gave a Kd (HLA-A*03:01 [6]; [41]) of 0.0179 µM, a Kd (HLA-A*23:01 [19]) of no less than 20 µM and a Kd (HLA-A*24:03 [7]; [41]) of no less than 20 µM. It also gave a Kd (HLA-A*29:02 [9]; [41]) of no more than 0.0001 µM, a Kd (HLA-A*69:01 [11]; [41]) of no less than 20 µM and a Kd (HLA-B*18:01 [14]; [41]) of no less than 20 µM. For the same sequence, the Kd (HLA-B*27:03 [15]; [41]) was no less than 20 µM, the Kd (HLA-B*39:01; [41]) was no less than 20 µM and the Kd (HLA-B*46:01 [16]; [41]) was no less than 20 µM.
RRLRTLVLA gave a Kd (HLA-B*48:01; source organism: Tick-borne encephalitis virus) of no less than 20 µM.
MHCDFAFWV gave a Kd (HLA-A*02:01 [20]; [42]) of no less than 20 µM, a Kd (HLA-A*02:03 [21]; [42]) of no less than 20 µM and a Kd (HLA-A*02:12 [22]; [42]) of no less than 20 µM. For the same sequence, the Kd (HLA-A*02:16 [23]; [42]) was no less than 20 µM, the Kd (HLA-A*02:19 [24]; [42]) was no less than 20 µM and the Kd (HLA-A*03:01 [25]; [42]) was no less than 20 µM. It also gave a Kd (HLA-A*23:01 [26]) of no less than 20 µM, a Kd (HLA-A*24:03 [27]) of no less than 20 µM and a Kd (HLA-A*26:01 [28]; [42]) of no less than 20 µM. For the same sequence, the Kd (HLA-A*29:02 [29]) was no less than 20 µM, the Kd (HLA-A*68:02 [30]; [42]) was no less than 20 µM and the Kd (HLA-A*69:01 [31]) was no less than 20 µM. For the same sequence, the Kd (HLA-B*15:01 [32]; [42]) was no less than 20 µM, the Kd (HLA-B*15:17 [33]) was no less than 20 µM and the Kd (HLA-B*18:01 [34]; [42]) was no less than 20 µM. It also gave a Kd (HLA-B*27:03 [35]; [42]) of no less than 20 µM, a Kd (HLA-B*46:01 [36]; [42]) of no less than 20 µM and a Kd (HLA-B*51:01 [37]; [42]) of no less than 20 µM. The Kd (HLA-B*57:01 [38]; [42]) was no less than 20 µM.
Work on YLAEGHACL yielded a Kd (HLA-C*03:03) of 0.002 µM, a Kd (HLA-C*05:01) of 0.151 µM and a Kd (HLA-A*02:03 [2]; [43]) of no more than 0.001 µM. It also gave a Kd (HLA-A*02:06; [43]) of no more than 0.001 µM, a Kd (HLA-A*02:11; [43]) of no more than 0.001 µM and a Kd (HLA-A*02:12 [3]; [43]) of 0.0026 µM. For the same sequence, the Kd (HLA-A*02:16 [4]; [43]) was no more than 0.001 µM, the Kd (HLA-A*02:19 [5]; [43]) was 0.0033 µM and the Kd (HLA-A*69:01 [11]; [43]) was 0.378 µM.
Work on LPYPVLLKI yielded a Kd (HLA-A*02:01 [20]; [44]) of no less than 20 µM, a Kd (HLA-A*02:03 [21]; [44]) of no less than 20 µM and a Kd (HLA-A*02:12 [22]; [44]) of no less than 20 µM. For the same sequence, the Kd (HLA-A*02:16 [23]; [44]) was no less than 20 µM, the Kd (HLA-A*02:19 [24]; [44]) was no less than 20 µM and the Kd (HLA-A*03:01 [25]; [44]) was no less than 20 µM. The Kd (HLA-A*26:01 [28]; [44]) was no less than 20 µM, the Kd (HLA-A*68:02 [30]; [44]) was no less than 20 µM and the Kd (HLA-B*15:01 [32]; [44]) was no less than 20 µM. For the same sequence, the Kd (HLA-B*18:01 [34]; [44]) was no less than 20 µM, the Kd (HLA-B*27:03 [35]; [44]) was no less than 20 µM and the Kd (HLA-B*46:01 [36]; [44]) was no less than 20 µM. The Kd (HLA-B*51:01 [37]; [44]) was 0.054 µM and the Kd (HLA-B*57:01 [38]; [44]) was no less than 20 µM.
